In US8337851B2, “Methods of monitoring the efficacy of anti-CD40 antibodies in treating a subject for a CD40-expressing cancer” (Novartis AG, priority 2005, dated 2012):
Entries after “also recorded” stand apart in the source; their conditions may differ. Each block holds one molecule with its values, some of them ahead of it.

What was measured:
B-CLL cells [1] = experiment: p38 MAPK signaling in B-CLL cells, four-hour experiment; type: cell-based, human; conditions: 4 hours; SB203580 30 and 60 μM, CHIR-12.12 10 μg/mL
Experimental: In the four-hour experiment, approximately 0.8×10^6 B-CLL cells per well were serum starved in 1% FBS-containing media for 4 hours. […] Cell lysates were collected before and 20 minutes after CD40L stimulation. Western blot analysis with antibodies against specific proteins shown were conducted, and equal loading was evaluated by probing with antibodies to total p38 (t-p38) and β-actin.

B-CLL cells [2] = experiment: p38 MAPK signaling and survival in B-CLL cells, 24-hour experiment; type: cell-based, human
Experimental: In the 24-hour experiment, approximately 0.8×10^6 B-CLL cells per well were placed in full serum (10% FBS)-containing media for 24 hours. […] Western blot analysis with antibodies against specific proteins shown was conducted, and equal loading was evaluated by probing with antibodies against β-actin.

[3] = system: IM-9 tumor cells (a human multiple myeloma cell line); experiment: IM-9 multiple myeloma subcutaneous xenograft model; type: in vivo, SCID mice
Experimental: SCID mice were inoculated subcutaneously with IM-9 tumor cells (a human multiple myeloma cell line expressing both CD40 and CD20) in 50% […]™ at 5×10^6 cells per mouse. […] Alternatively, bortezomib dosing at 1 mg/kg intravenously occurred on days 5, 8, 12, and 15 after tumor implantation. […] Antibody dosing occurred on days 8, 14, and 21 post tumor implantation, while bortezomib dosing occurred on days 8, 11, 14 and 18 post tumor implantation. […] Data were analyzed using the log-rank test.

KMS-12-BM tumor = experiment: Human KMS-12-BM subcutaneous xenograft model; type: in vivo, SCID mice; conditions: 1 mg/kg i.v. twice a week for two weeks (maximal tolerated dose); P>0.05
Experimental: Female SCID mice were treated with 3Gy irradiation one day prior to implantation of tumor cells. On the day of implantation, cells were prepared at a concentration of 5×10^7 cells/ml in 50% matrigel. Cells were implanted subcutaneously over the right flank at 5×10^6 cells/100 μl/mouse. […] Antibodies were administered intraperitoneally once a week for 4 weeks. Bortezomib was administered intravenously twice a week for two weeks.

[4] = system: B-CLL cells from patients; experiment: PI3K and MEK inhibitors on CD40L signaling and survival in B-CLL cells; type: cell-based, human
Experimental: A PI3K inhibitor (LY294002; Sigma, St. Louis, Mo.) and MEK inhibitor (PD98595; Cell Signaling Technology, Beverly, Mass.) were used to dissect the pathways required for CLL cell survival. In these experiments, 1.0×10^6 B-CLL cells from patients were serum starved in 1% FBS containing media for 4 hours. Serum-starved cells were then pretreated with LY294002 (PI3K inhibitor, 30 μM) or PD98595 (MEK inhibitor, 10 μM). Cell lysates were then collected before and 20 minutes after CD40L stimulation. Western blot analysis with antibodies to p-IKK α/β, p-ERK, p-Akt was conducted, and equal loading was evaluated by probing antibodies to total ERK and β-actin.

[5] = system: CD40-expressing target cells; experiment: ADCC activity of anti-CD40 antibodies (Table 1); type: cell-based
soluble CD40 = soluble CD40 (Homo sapiens, UniProt P25942); experiment: ELISA-type binding to soluble CD40; conditions: ELISA-type assays
Chain of soluble CD40 (P25942 21-193 limits assumed): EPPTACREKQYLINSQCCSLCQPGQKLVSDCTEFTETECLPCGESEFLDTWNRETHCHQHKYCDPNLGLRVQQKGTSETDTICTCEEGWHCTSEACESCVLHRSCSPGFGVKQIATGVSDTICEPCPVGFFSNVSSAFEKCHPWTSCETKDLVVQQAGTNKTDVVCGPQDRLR
Source text: (§1) 2, 2000, and PCT International Application No. PCT/US01/30857, also titled “Human Anti-CD40 Antibodies,” filed Oct. 2, 2001, both of which are herein incorporated by reference in their entirety.

cell-surface CD40 = cell-surface CD40 (Homo sapiens, UniProt P25942); experiment: Flow cytometric CD40-ligand binding blockade and displacement; conditions: flow cytometric assays / FACS
Chain of cell-surface CD40 (P25942 21-277): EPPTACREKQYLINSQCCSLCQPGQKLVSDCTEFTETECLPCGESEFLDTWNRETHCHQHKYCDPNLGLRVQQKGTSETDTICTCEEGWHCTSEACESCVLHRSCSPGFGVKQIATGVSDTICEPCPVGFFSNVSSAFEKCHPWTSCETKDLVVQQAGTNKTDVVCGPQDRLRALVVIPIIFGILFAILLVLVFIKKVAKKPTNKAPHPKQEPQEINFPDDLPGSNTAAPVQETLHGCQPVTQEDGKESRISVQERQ
Source text: as §1
(§2) 4, 2003, Nov. 26, 2003, and Apr. 27, 2004, and assigned U.S. Patent Application Nos. 60/517,337, 60/525,579, and 60/565,710, respectively, and International Patent Application No. PCT/US2004/037152, also entitled “Antagonist, Anti-CD40 Monoclonal Antibodies and Methods for Their Use,” filed Nov. 4, 2004; the contents of each of which are herein incorporated by reference in their entirety.

[6] = system: B cells from normal human subjects; experiment: In vitro CD40 ligand-mediated proliferation of normal B cells; type: cell-based
Source text: as §1, §2

[7] = system: cancer cells from NHL and CLL patients; experiment: In vitro CD40 ligand-mediated proliferation of patient cancer cells; type: cell-based, human
Source text: as §2

[8] = system: primary cancer cells from NHL patients; experiment: ADCC against primary cancer cells; type: cell-based, human; conditions: in vitro
Source text: as §2

[9] = system: human lymphocytes from normal subjects; experiment: Proliferation of human lymphocytes; type: cell-based; conditions: antibody alone
normal B cells = experiment: CD40L-induced cytokine secretion from normal B cells (Meso Scale Discovery); type: cell-based, human; conditions: 24 hours
Experimental: (§3) Cells (1×10^5 cells per well) were cultured in a 96-well plate in the presence or absence of CD40L (CD40 transfected, formaldehyde fixed CHO cells, 2×10^5 per well). […] Production of hIL-6, hIL-8, hIL-10, hTNF-α, hGM-CSF, hIL-1b, hIL-12p70, MCP-1, and MIP-1β was measured by Meso Scale Discovery® multi-array system (Meso Scale Discovery, Gaithersburg, Md.).

CLL cells = experiment: CD40L-induced cytokine secretion by CLL cells (Meso Scale Discovery); type: cell-based, human; conditions: CLL #1; 24 hours
Experimental: as §3

B-CLL cells [10] = experiment: CellTiter-Glo viability of CLL patient PBMCs; type: cell-based, human; conditions: 72 hours, 2 μg/ml rhsCD40L + 4 μg/ml enhancer
Experimental: Cell viability was determined after 72 hours using the CellTiter-Glo® Luminescent Cell Viability Kit (Promega, Madison, Wis.), which measures cellular ATP, and expressed as Relative Luminescence Units (RLU). Percent blockade was calculated as follows: […]

B-CLL cells [11] = experiment: cPARP flow cytometry of CLL patient PBMCs; type: cell-based, human; conditions: 24 hours
Experimental: [formula] cPARP analysis by flow cytometry was performed after 24 hours in culture. Cells were treated with FACSLysis buffer (BD Biosciences) and frozen. After fixation in 1% formaldehyde for 45 min, cells were washed and incubated with PE-conjugated mouse anti-human CD19 for 30 min at room temperature (RT). Cells were then permeabilized using 70% ethanol on ice for 30 min and stained for 30 min at RT with rabbit anti-human cPARP antibody or isotype control rabbit IgG along with PerCP-Cy5.5-labeled mouse anti-human CD5. This was followed by incubation with goat anti-rabbit IgG-AlexaFluor 647 for 30 min at RT before fixing with 1% formaldehyde and analyzing by flow cytometry. Percent blockade was calculated as follows: […]

Molecule: C[S+]([O-])c1ccc(-c2nc(-c3ccncc3)c(-c3ccc(F)cc3)[nH]2)cc1 (stereo not shown) [SB203580, reference compound]
p38 activation by CD40L (B-CLL cells [1]): slightly inhibited
cleaved Caspase-3 (B-CLL cells [2]; CD40L): induced to a lesser extent
p38 phosphorylation (B-CLL cells [2]; CD40L): similarly blocked
cleaved-PARP (B-CLL cells [2]; SB203580 30 and 60 μM, CHIR-12.12 10 μg/mL, CD40L): significantly induced
Bcl-xl expression (B-CLL cells [2]; especially 60 μM SB203580 and 10 μg/ml CHIR-12.12): blocked

Molecule: CC(C)C[C@H](NC(=O)[C@H](Cc1ccccc1)NC(=O)c1cnccn1)B(O)O [bortezomib, reference compound]
tumor growth ([3]; first study, CHIR-12.12 1 and 10 mg/kg i.p. days 5, 12, 18, bortezomib 1 mg/kg i.v. days 5, 8, 12, 15): inhibited tumor growth at 15, 18, and 21 days post tumor implantation
tumor growth ([3]; second study, bortezomib 1 mg/kg i.v. days 8, 11, 14, 18): did not display statistically significant growth inhibition
tumor volume reduction (KMS-12-BM tumor): 22%

Molecule: COc1cccc(-c2cc(=O)c3ccccc3o2)c1N [PD98595]
IKK/NFkB activation ([4]; LY294002 30 μM or PD98595 10 μM): no change of IKK/NFkB activation
survival mediated by CD40L (cleaved PARP, caspase-3, Bcl-xl) ([4]; LY294002 or PD98595, FIG. 9): no change of survival mediated by CD40L
activation of ERK induced by CD40L ([4]; PD98595 10 μM, 20 minutes after CD40L): inhibited activation of ERK

binding to soluble CD40 (soluble CD40): bind soluble CD40
Molecule: CHIR-5.9: fully human anti-CD40 monoclonal antibody of the IgG1 isotype from hybridoma cell line 131.2F8.5.9 (ATCC PTA-5542)
killing of CD40-expressing target cells by ADCC [5]: able to kill CD40-expressing target cells
displacement of pre-bound CD40-ligand (cell-surface CD40): displace the pre-bound CD40-ligand; also recorded: can compete off CD40-ligand pre-bound to cell surface CD40
prevention of CD40-ligand binding to cell-surface CD40 (cell-surface CD40): prevent the binding of CD40-ligand to cell-surface CD40; also recorded: can prevent CD40-ligand binding
effect on proliferation of normal B cells [6]: act as antagonist anti-CD40 antibodies; also recorded: inhibit in vitro CD40 ligand-mediated proliferation of normal B cells
effect on CD40 ligand-mediated proliferation of cancer cells [7]: inhibiting in vitro CD40 ligand-mediated proliferation of cancer cells from NHL and CLL patients
killing of primary cancer cells by ADCC [8]: kill primary cancer cells from NHL patients by ADCC
induction of lymphocyte proliferation (agonist activity) [9]: do not induce strong proliferation of human lymphocytes from normal subjects

B1: CD40L: CD40 ligand used as stimulus: transfected formaldehyde fixed CHO cells (Example 4) or recombinant human soluble CD40L (Example 7) (protein)
chain: MIETYNQTSPRSAATGLPISMKIFMYLLTVFLITQMIGSALFAVYLHRRLDKIEDERNLHEDFVFMKTIQRCNTGERSLSLLNCEEIKSQFEGFVKDIMLNKEETKKENSFEMQKGDQNPQIAAHVISEASSKTTSVLQWAEKGYYTMSNNLVTLENGKQLTVKRQGLYYIYAQVTFCSNREASSQAPFIASLCLKSPGRFERILLRAANTHSSAKPCGQQSIHLGGVFELQPGASVFVNVTDPSQVSHGTGFTSFGLLKL
MCP-1 secretion (normal B cells; Donor 1): 5.5 folds of induction over background
MIP-1β secretion (normal B cells; Donor 1): 2.2 folds of induction over background
hGM-CSF secretion (normal B cells; Donor 1): no induction
hIL-1b secretion (normal B cells; Donor 1): no induction
hIL-6 secretion (normal B cells; Donor 1): 5.7 folds of induction over background
hIL-8 secretion (normal B cells; Donor 1): 7.7 folds of induction over background
hIL-10 secretion (normal B cells; Donor 1): 3.6 folds of induction over background
hIL-12p70 secretion (normal B cells; Donor 1): no induction
hTNF-α secretion (normal B cells; Donor 1): 3.7 folds of induction over background
MIP-1β secretion (normal B cells; Donor 2): 2.6 folds of induction over background
hIL-1b secretion (normal B cells; Donor 2): no induction
hIL-6 secretion (normal B cells; Donor 2): 3.8 folds of induction over background
hIL-8 secretion (normal B cells; Donor 2): 14.7 folds of induction over background
hTNF-α secretion (normal B cells; Donor 2): 4.8 folds of induction over background
MCP-1 secretion (normal B cells; Donor 3): 1.7 folds of induction over background
MIP-1β secretion (normal B cells; Donor 3): 17.8 folds of induction over background
hGM-CSF secretion (normal B cells; Donor 3): no induction
hIL-1b secretion (normal B cells; Donor 3): no induction
hIL-6 secretion (normal B cells; Donor 3): 20.5 folds of induction over background
hIL-8 secretion (normal B cells; Donor 3): 49.3 folds of induction over background
hIL-10 secretion (normal B cells; Donor 3): 3.6 folds of induction over background
hIL-12p70 secretion (normal B cells; Donor 3): no induction
hTNF-α secretion (normal B cells; Donor 3): 22.8 folds of induction over background
MCP-1 secretion (CLL cells): 5.5 folds of induction over background
MIP-1β secretion (CLL cells): no induction
hGM-CSF secretion (CLL cells): 7.6 folds of induction over background
hIL-1b secretion (CLL cells): no induction
hIL-6 secretion (CLL cells): no induction
hIL-8 secretion (CLL cells): 4.0 folds of induction over background
hIL-10 secretion (CLL cells): 9.2 folds of induction over background
hTNF-α secretion (CLL cells): 3.3 folds of induction over background
samples in which CD40L promoted survival of B-CLL cells (B-CLL cells [10]): 7/7
samples in which CD40L promoted survival of B-CLL cells (B-CLL cells [11]): 6/7
